Among the data in patent publication US20140113854A1 are Ki values, retold here.

Assay [1] deals with Human α-thrombin (human) (UniProt P00734). Kind of assay: inhibition of thrombin-catalysed hydrolysis of chromogenic substrate S-2238, 37 °C.
Assay [2] shares this target. The experiment in a line: inhibition of thrombin by monovalent active-site moiety; conditions not given at the table.

For Bivalirudin (peptide), the Ki – broadly, the equilibrium dissociation constant of an inhibitor or competing ligand from its target – with Human α-thrombin (human) [1] was found to be 0.002 µM. In other words, the single-digit nanomolar range.
H-dFPR (peptide) came in with a Ki in the assay with Human α-thrombin (human) [2] of 1.57 µM. This lies in the single-digit micromolar range.
Same read-out and setting: the figure for Dansyl-R-(d-Pip)-NH2 (peptide) is 0.37 µM.
On the same count and under the same terms, the figure for Dansyl-R-(d-Tic)-NH2 (peptide) is 0.86 µM; for Bbs-R-(d-Pip)-NH2 (peptide) it is 1.13 µM; for Boc-dFPR (peptide) it is 4.38 µM.
On the same count and under the same terms, the figure for Dansyl-R-(d-Pip)-Abu-NH2 (peptide) is 0.82 µM.
In the assay with Human α-thrombin (human) [2], Bbs-R-(d-Pip)-W-NH2 (peptide) displayed an inhibitory constant (Ki) of 6 µM.
The same measure, in the same setting: the figure for Ac-dFPR (peptide) is 170 µM; for Bbs-R-(d-Pip)-G-NH2 (peptide) it is 2.26 µM.
